Earlier results, collected in paper PMC7081292.
Like-named read-outs stand apart in the source and are kept apart here.

Assays:
[1] = molecular target: T1, His57 (UniProt position 57, VVTAAHCGVTT); conditions: zwitterionic tetrahedral (hemiacetal) adduct with an aldehyde inhibitor
[2] = molecular target: T1, His57; test: NMR; conditions: zwitterionic tetrahedral adduct with a peptide-derived glyoxal inhibitor

In the case of “Chymotrypsin (not stated (presumably Bos taurus))”, the pKa [1] is given as “∼ 8” and the pKa [2] is given as over 11.
